Assay results from patent US20230212319A1, “NOVEL ANTIGEN BINDING DOMAINS AND SYNTHETIC ANTIGEN RECEPTORS INCORPORATING THE SAME” (University of Southern California, priority 2020, published 2023).
“Also recorded” adds a separate entry of the source.

Tests used:
[1] = system: LNCaP-LucPPe cells; assay: LNCaP-LucPPE xenograft in NSG mice, with rechallenge; assay type: in vivo; details: for tumor control (bioluminescence imaging, caliper tumor volume), LNCaP-LucPPE xenograft: 1 × 10^6 LNCaP-LucPPe s.c., 17 days later 3 × 10^6 T cells i.v., male NSG mice; for survival, LNCaP-LucPPE xenograft: mouse, in vivo
[2] = system: RAJI cells; assay: JNG (Jurkat NFAT-GFP) cells expressing SAR: GFP induction on co-culture with RAJI; details: CD19 hu-mROO5-1 SIRs with deletion mutants of TCR constant chains; flow cytometry

B1: 9832 (protein)
chain: MALPVTALLLPLALLLHAARPDIQMTQSPSSLSASVGDRVTITCKASQDVGTAVDWYQQKPGKAPKLLISWASTRHTGVPSRFSGSGSGTDFTLTISSLQPEDFATYFCQQYNSYPLTFGQGTKVEIKRTVLEDLKNVFPPEVAVFEPSEAEISHTQKATLVCLATGFYPDHVELSWWVNGKEVHSGVCTDPQPLKEQPALNDSRYCLSSRLRVSATFWQNPRNHFRCQVQFYGLSENDEWTQDRAKPVTQIVSAEAWGRADCGFTSESYQQGVLSATILYEILLGKATLYAVLVSALVLMAMVKRKDSRGRAKRSGSGATNFSLLKQAGDVEENPGPTSMDWIWRILFLVGAATGAHSFEQVQLVQSGAEVKKPGESVKVSCKASGYTFTEYTIHWVRQAPGQGLEWMGNINPNNGGTTYNQKFEDRVTITADKSTSTAYMELSSLRSEDTAVYYCARGWNFDYWGQGTTVTVSSTRIQNPDPAVYQLRDSKSSDKSVCLFTDFDSQTNVSQSKDSDVYITDKCVLDMRSMDFKSNSAVAWSNKSDFACANAFNNSIIPEDTFFPSPESSCDVKLVEKSFETDTNLNFQNLSVIGFRILLLKVAGFNLLMTLRLWSS
modifications: Synthetic Polynucloetide
- tumor control (bioluminescence imaging, caliper tumor volume), LNCaP-LucPPE xenograft [1]: effective control of tumor
- survival, LNCaP-LucPPE xenograft [1]: improvement in survival

B2: 9901 (protein)
chain: MALPVTALLLPLALLLHAARPDIQMTQSPSSLSASVGDRVTITCKASQDVGTAVDWYQQKPGKAPKLLIYWASTRHTGVPSRFSGSGSGTDFTLTISSLQPEDFATYYCQQYNSYPLTFGQGTKVEIKRLEDLKNVFPPEVAVFEPSEAEISHTQKATLVCLATGFYPDHVELSWWVNGKEVHSGVCTDPQPLKEQPALNDSRYCLSSRLRVSATFWQNPRNHFRCQVQFYGLSENDEWTQDRAKPVTQIVSAEAWGRADCGFTSESYQQGVLSATILYEILLGKATLYAVLVSALVLMAMVKRKDSRGRAKRSGSGATNFSLLKQAGDVEENPGPTSMDWIWRILFLVGAATGAHSFEEVQLQQSGPELVKPGTSVRISCKTSGYTFTEYTIHWVKQSHGKSLEWIGNINPNNGGTTYNQKFEDKATLTVDKSSSTAYMELRSLTSEDSAVYYCAAGWNFDYWGQGTTLTVSSTRIQNPDPAVYQLRDSKSSDKSVCLFTDFDSQTNVSQSKDSDVYITDKCVLDMRSMDFKSNSAVAWSNKSDFACANAFNNSIIPEDTFFPSPESSCDVKLVEKSFETDTNLNFQNLSVIGFRILLLKVAGFNLLMTLRLWSS
modifications: Synthetic Polynucloetide
- tumor control (bioluminescence imaging, caliper tumor volume), LNCaP-LucPPE xenograft [1]: effective control of tumor; also recorded: statistically significant and effective tumor control
- survival, LNCaP-LucPPE xenograft [1]: improvement in survival

B3: 9762 (protein)
chain: MALPVTALLLPLALLLHAARPDIQMTQSPSSLSASVGDRVTITCKASQDVGTAVDWYQQKPGKAPKLLIYWASTRHTGVPSRFSGSGSGTDFTLTISSLQPEDFATYYCQQYNSYPLTFGQGTKVEIKRLEDLKNVFPPEVAVFEPSKAEIAHTQKATLVCLATGFYPDHVELSWWVNGKEVHSGVCTDPQPLKEQPALNDSRYCLSSRLRVSATFWQNPRNHFRCQVQFYGLSENDEWTQDRAKPVTQIVSAEAWGRADCGITSASYHQGVLSATILYEILLGKATLYAVLVSALVLMAMVKRKDSRGRAKRSGSGATNFSLLKQAGDVEENPGPTSMDWIWRILFLVGAATGAHSFEEVQLVESGGGLVQPGGSLRLSCAASGYTFTEYTIHWVRQAPGKGLEWVANINPNNGGTTYNQKFEDRFTISRDNSKNTLYLQMNSLRAEDTAVYYCARGWNFDYWGQGTLVTVSSTRIQNPDPAVYQLRDSKSSDKSVCLFTDFDSQTNVSQSKDSDVYITDKCVLDMRSMDFKSNSAVAWSNKSDFACANAFNNSIIPEDTFFPSSDVPCDVKLVEKSFETDTNLNFQNLSVIGFRILLLKVAGFNLLMTLRLWSSRAKRSGSGVKQTLNFDLLKLAGDVESNPGPSRGHMTEYKPTVRLATRDDVPRAVRTLAAAFADYPATRHTVDPDRHIERVTELQELFLTRVGLDIGKVWVADDGAAVAVWTTPESVEAGAVFAEIGPRMAELSGSRLAAQQQMEGLLAPHRPKEPAWFLATVGVSPDHQGKGLGSAVVLPGVEAAERAGVPAFLETSAPRNLPFYERLGFTVTADVEVPEGPRTWCMTRKPGA
modifications: Synthetic Polynucloetide
- tumor control (bioluminescence imaging, caliper tumor volume), LNCaP-LucPPE xenograft [1]: statistically significant and effective tumor control

B4: 9970 (protein)
chain: MALPVTALLLPLALLLHAARPDIVMTQSHKFMSTSVGDRVSIICKASQDVGTAVDWYQQKPGQSPKLLIYWASTRHTGVPDRFTGSGSGTDFTLAITNVQSEDLADYFCQQYNSYPLTFGAGTKLEIKRLEDLKNVFPPEVAVFEPSEAEISHTQKATLVCLATGFYPDHVELSWWVNGKEVHSGVCTDPQPLKEQPALNDSRYCLSSRLRVSATFWQNPRNHFRCQVQFYGLSENDEWTQDRAKPVTQIVSAEAWGRADCGFTSESYQQGVLSATILYEILLGKATLYAVLVSALVLMAMVKRKDSRGRAKRSGSGATNFSLLKQAGDVEENPGPTSMDWIWRILFLVGAATGAHSFEEVQLVESGGGLVQPGGSLRLSCAASGYTFTEYTIHWVRQAPGKGLEWVANINPNNGGTTYNQKFEDRFTISRDNSKNTLYLQMNSLRAEDTAVYYCARGWNFDYWGQGTLVTVSSTRIQNPDPAVYQLRDSKSSDKSVCLFTDFDSQTNVSQSKDSDVYITDKCVLDMRSMDFKSNSAVAWSNKSDFACANAFNNSIIPEDTFFPSPESSCDVKLVEKSFETDTNLNFQNLSVIGFRILLLKVAGFNLLMTLRLWSS
modifications: Synthetic Polynucloetide
- tumor control (bioluminescence imaging, caliper tumor volume), LNCaP-LucPPE xenograft [1]: statistically significant and effective tumor control

B5: 22641 (protein)
chain: MALPVTALLLPLALLLHAARPDIQMTQSPSSLSASVGDRVTITCKASDHINNWLAWYQQKPGQAPKLLIYGATTLETGVPSRFSGSGSGTDYTLTISSLQPEDFATYYCQQSWNTPWTFGQGTKLEIKRLEAEISHTQKATLVCLATGFYPDHVELSWWVNGKEVHSGVCTDPQPLKEQPALNDSRYCLSSRLRVSATFWQNPRNHFRCQVQFYGLSENDEWTQDRAKPVTQIVSAEAWGRADCGFTSESYQQGVLSATILYEILLGKATLYAVLVSALVLMAMVKRKDSRGRAKRSGSGATNFSLLKQAGDVEENPGPTSMDWIWRILFLVGAATGAHSFEQVQLQQPGAELVKPGASVKMSCKASGYAFSSYWINWMKQKPGQGLEWIGQIYPGDGDTNYNGKFKGRATLTADTSSSTAYMQLSSLTSEDSAVYFCARSITTVVGCAMDYWGQGTSVTVSSTRDKSVCLFTDFDSQTNVSQSKDSDVYITDKCVLDMRSMDFKSNSAVAWSNKSDFACANAFNNSIIPEDTFFPSPESSCDVKLVEKSFETDTNLNFQNLSVIGFRILLLKVAGFNLLMTLRLWSSRAKRSGSGVKQTLNFDLLKLAGDVESNPGPSRGHMTEYKPTVRLATRDDVPRAVRTLAAAFADYPATRHTVDPDRHIERVTELQELFLTRVGLDIGKVWVADDGAAVAVWTTPESVEAGAVFAEIGPRMAELSGSRLAAQQQMEGLLAPHRPKEPAWFLATVGVSPDHQGKGLGSAVVLPGVEAAERAGVPAFLETSAPRNLPFYERLGFTVTADVEVPEGPRTWCMTRKPGA
- Jurkat-NFAT ASSA Y: Raji [2]: significant GFP induction

B6: 22651 (protein)
chain: MALPVTALLLPLALLLHAARPDIQMTQSPSSLSASVGDRVTITCKASDHINNWLAWYQQKPGQAPKLLIYGATTLETGVPSRFSGSGSGTDYTLTISSLQPEDFATYYCQQSWNTPWTFGQGTKLEIKRLEADVSPKPTIFLPSIAETKLQKAGTYLCLLEKFFPDVIKIHWQEKKSNTILGSQEGNTMKTNDTYMKFSWLTVPEKSLDKEHRCIVRHENNKNGVDQEIIFPPIKTDVITMDPKDNCSKDANDTLLLQLTNTSAYYMYLLLLLKSVVYFAIITCCLLRRTAFCCNGEKSRAKRSGSGATNFSLLKQAGDVEENPGPTSMDWIWRILFLVGAATGAHSFEQVQLQQPGAELVKPGASVKMSCKASGYAFSSYWINWMKQKPGQGLEWIGQIYPGDGDTNYNGKFKGRATLTADTSSSTAYMQLSSLTSEDSAVYFCARSITTVVGCAMDYWGQGTSVTVSSTRPHTKPSVFVMKNGTNVACLVKEFYPKDIRINLVSSKKITEFDPAIVISPSGKYNAVKLGKYEDSNSVTCSVQHDNKTVHSTDFEVKTDSTDHVKPKETENTKQPSKSCHKPKAIVHTEKVNMMSLTVLGLRMLFAKTVAVNFLLTAKLFFLRAKRSGSGVKQTLNFDLLKLAGDVESNPGPSRGHMTEYKPTVRLATRDDVPRAVRTLAAAFADYPATRHTVDPDRHIERVTELQELFLTRVGLDIGKVWVADDGAAVAVWTTPESVEAGAVFAEIGPRMAELSGSRLAAQQQMEGLLAPHRPKEPAWFLATVGVSPDHQGKGLGSAVVLPGVEAAERAGVPAFLETSAPRNLPFYERLGFTVTADVEVPEGPRTWCMTRKPGA
- Jurkat-NFAT ASSA Y: Raji [2]: significant residual activity

B7: 22652 (protein)
chain: MALPVTALLLPLALLLHAARPDIQMTQSPSSLSASVGDRVTITCKASDHINNWLAWYQQKPGQAPKLLIYGATTLETGVPSRFSGSGSGTDYTLTISSLQPEDFATYYCQQSWNTPWTFGQGTKLEIKRLEVSPKPTIFLPSIAETKLQKAGTYLCLLEKFFPDVIKIHWQEKKSNTILGSQEGNTMKTNDTYMKFSWLTVPEKSLDKEHRCIVRHENNKNGVDQEIIFPPIKTDVITMDPKDNCSKDANDTLLLQLTNTSAYYMYLLLLLKSVVYFAIITCCLLRRTAFCCNGEKSRAKRSGSGATNFSLLKQAGDVEENPGPTSMDWIWRILFLVGAATGAHSFEQVQLQQPGAELVKPGASVKMSCKASGYAFSSYWINWMKQKPGQGLEWIGQIYPGDGDTNYNGKFKGRATLTADTSSSTAYMQLSSLTSEDSAVYFCARSITTVVGCAMDYWGQGTSVTVSSTRPHTKPSVFVMKNGTNVACLVKEFYPKDIRINLVSSKKITEFDPAIVISPSGKYNAVKLGKYEDSNSVTCSVQHDNKTVHSTDFEVKTDSTDHVKPKETENTKQPSKSCHKPKAIVHTEKVNMMSLTVLGLRMLFAKTVAVNFLLTAKLFFLRAKRSGSGVKQTLNFDLLKLAGDVESNPGPSRGHMTEYKPTVRLATRDDVPRAVRTLAAAFADYPATRHTVDPDRHIERVTELQELFLTRVGLDIGKVWVADDGAAVAVWTTPESVEAGAVFAEIGPRMAELSGSRLAAQQQMEGLLAPHRPKEPAWFLATVGVSPDHQGKGLGSAVVLPGVEAAERAGVPAFLETSAPRNLPFYERLGFTVTADVEVPEGPRTWCMTRKPGA
- Jurkat-NFAT ASSA Y: Raji [2]: significant residual activity
